Target: SARS-CoV-2 receptor binding domain, omicron subvariant BA5 (RBDBA5) (UniProt P0DTC2)
Assay: SPR

In the case of antibody 10-40 H:R100bL, the Kd is reported as 155 pM and the ratio to parent is reported as 1.72.
antibody 10-40 H:G27S was tested, and the ratio to parent was 0.79.
Work on antibody 10-40 L:Q53F yielded a Kd of 188 pM and a ratio to parent of 1.42.
antibody 10-40 H:R100bI; H:S32H was tested, and the Kd was 2.05 pM and the ratio to parent was 130.
In the case of antibody 10-40 H:S98R, the ratio to parent is reported as 0.26.
antibody 10-40 L:D51W gave a ratio to parent of 0.5.
antibody 10-40 H:R100bI was tested, and the Kd was 69.5 pM and the ratio to parent was 3.83.
For antibody 10-40 H:R100bI; H:S32H; L:Q53F, the Kd was 0.05 pM.

From paper PMC10235760
